Changes are numbered by the printed parent chain.
B1: unnamed (protein)
chain: MLSFLRSTGRPERRRASLPALLLFTAALVASGLTAAPAAQAADNPYQRGPDPTNASIEAATGPFAVGTQPIVGASGFGGGQIYYPTDTSQTYGAVVIVPGFISVWAQLNWLGPRLASQGFVVIGIETSVITDLPDPRGDQALAALDWATTRSPVASRIDRTRLAAAGWSMGGGGLRRAALQRPSLKAIVGMAPWNGERNWSAVTVPTLFFGGSSDAVASPNDHAKPFYNSITRAEKDYIELRNADHFFPNSANTTMAKYFISWLKRWVDNDTRYTQFLCPGPSTGLFAPVSASMNTCPF
B2: unnamed (protein)
chain: B1 chain with P136S, N250T
B3: unnamed (protein)
chain: B1 chain with G196L, N250T
B4: unnamed (protein)
chain: B1 chain with T86R, N250T
B5: unnamed (protein)
chain: B1 chain with R157A, N250T
B6: unnamed (protein)
chain: B1 chain with A192T, N250T
B7: unnamed (protein)
chain: B1 chain with N250T, A252N
B8: unnamed (protein)
chain: B1 chain with N109A, N250T
B9: unnamed (protein)
chain: B1 chain with R198K, N250T
B10: unnamed (protein)
chain: B1 chain with R233A, N250T
B11: unnamed (protein)
chain: B1 chain with L133Y, N250T
B12: unnamed (protein)
chain: B1 chain with R242C, N250T, S291C
B13: unnamed (protein)
chain: B1 chain with A155R, L180C, A202C, R242C, N250T, S291C
B14: unnamed (protein)
chain: B1 chain with G76C, A143C, N250T
B15: unnamed (protein)
chain: B1 chain with Q107S, N250T
B16: unnamed (protein)
chain: B1 chain with V129T, L180C, R198K, A202C, R242C, N250T, S291C

Substrate: pcPET (post-consumer)
Test: Proxy for plastic degradation [Released monomer concentration (HPLC/LC-MS) (TPA+MHET+BHET)]
Settings: pH 9; 40 °C; 24 h

Row | Protein | Proxy for plastic degradation [µM]
1 | B1 | 10
2 | B2 | 680
3 | B3 | 520
4 | B4 | 485
5 | B5 | 225
6 | B6 | 495
7 | B7 | 530
8 | B8 | 720
9 | B9 | 950
10 | B10 | 715
11 | B11 | 405
12 | B12 | 890
13 | B13 | 948
14 | B14 | 295
15 | B15 | 620
16 | B16 | 1200

Same assay, conditions: pH 9; 60 °C; 6 h

Row | Protein | Proxy for plastic degradation [µM]
17 | B13 | 360
18 | B16 | 1020

From the PETadex activity labels (doi:10.1038/s41467-023-40233-w)
